Data: patent US20150079612A1

What was measured:
Hemoglobin [1] = test: competitive ECL 5-FU assay, Bi-61C6 beads and TAG Plus 1-5C-5-FU-BSA, hemoglobin 10 mg/mL in plasma without 5-FU
Hemoglobin [2] = test: competitive ECL 5-FU assay, Bi-61C6 beads and TAG Plus 1-5C-5-FU-BSA, hemoglobin 10 mg/mL in plasma with 1000 ng/mL spiked 5-FU
Hemoglobin [3] = test: competitive ECL 5-FU assay, Bi-61C6 beads and TAG Plus 1-5C-5-FU-BSA, hemoglobin 10 mg/mL in plasma with 75 ng/mL spiked 5-FU

B1: monoclonal antibody 61C6 (antibody, mouse IgG2b, kappa, V domains shown)
VH: QIQLVQSGPELKKPGETVTISCKASGYTLTNYGMNWVKQAPGKGLKWMGWINTNSGEPTYVEEFKGRFAFSLETSVSTVYLQISDLKHEDTATYFCARWGPHFNAYGWFAYWGQGTLVTVSA
VL: YIQMTQTASSLSASLGDRVTISCRASQDIWNYLNWYQQKPDGTIKLLIYYKSRLHSGVPSRFSGSGSGIDFSLTISNLEQEDFATYFCQQGHTLPWTFGGGSKLEIKR
modifications: biotinylated on primary amines with EZ-Link Sulfo-NHS-LC-Biotin (positions not stated)
Hemoglobin [1]
  % Cross-React: 0%
Hemoglobin [2]
  % Cross-React: -0.1%
Hemoglobin [3]
  % Cross-React: 0%
